# Measurements taken from patent US20060234940A1.
# Where no end group is shown, it is not given here. The star is where a group is joined. Thia = thiazolidide, C1CN(*)CS1
# Columns and labels:
# [1] = biological target: recombinant human DP IV, wild type (human) (UniProt P27487); experiment: MALDI-TOF MS, inhibition of DP IV-catalyzed truncation of the substrate PACAP-27 after preincubation with TFTSDY
# [2] = biological target: recombinant human DP IV, wild type (human) (UniProt P27487); experiment: MALDI-TOF MS, inhibition of DP IV-catalyzed truncation of the substrate PACAP-38 after preincubation with TFTSDY
# [3] = biological target: recombinant human DP IV, wild type (human) (UniProt P27487); experiment: MALDI-TOF MS, inhibition of DP IV-catalyzed truncation of the substrate GIP after preincubation with TFTSDY
# [4] = biological target: recombinant human DP IV, wild type (human) (UniProt P27487); experiment: MALDI-TOF MS, inhibition of DP IV-catalyzed truncation of the substrate glucagon after preincubation with TFTSDY
# [5] = biological target: recombinant human DP IV, wild type (human) (UniProt P27487); experiment: photometric assay, competition with the standard substrate GP-4NA
# recombinant human DP IV, wild type (human), sequence (P27487 other isoform, or with tags, fused parts or gaps): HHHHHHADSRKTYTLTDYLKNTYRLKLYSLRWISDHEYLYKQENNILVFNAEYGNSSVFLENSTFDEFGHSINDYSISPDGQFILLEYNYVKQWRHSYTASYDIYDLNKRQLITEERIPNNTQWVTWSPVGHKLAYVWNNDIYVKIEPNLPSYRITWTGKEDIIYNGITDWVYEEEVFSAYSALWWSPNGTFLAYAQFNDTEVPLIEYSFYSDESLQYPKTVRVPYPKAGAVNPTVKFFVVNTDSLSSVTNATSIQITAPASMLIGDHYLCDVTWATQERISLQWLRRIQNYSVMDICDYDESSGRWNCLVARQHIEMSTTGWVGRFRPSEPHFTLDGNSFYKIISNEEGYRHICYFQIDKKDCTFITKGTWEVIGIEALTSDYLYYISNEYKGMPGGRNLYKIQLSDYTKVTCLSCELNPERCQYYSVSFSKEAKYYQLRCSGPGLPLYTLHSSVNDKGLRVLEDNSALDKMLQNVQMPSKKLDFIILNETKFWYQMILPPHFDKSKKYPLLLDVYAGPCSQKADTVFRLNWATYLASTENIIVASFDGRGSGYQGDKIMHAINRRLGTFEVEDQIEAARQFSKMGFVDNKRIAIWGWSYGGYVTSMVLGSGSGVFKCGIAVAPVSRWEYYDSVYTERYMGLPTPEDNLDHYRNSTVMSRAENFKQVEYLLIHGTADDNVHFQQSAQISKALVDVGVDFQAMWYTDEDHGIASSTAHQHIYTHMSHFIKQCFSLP
Binder,Ki [1],Ki [2],Ki [3],Ki [4],Ki [5]
"HSDGIFTDSYSRYRKQMAVKKYLAAVLGKRYKQRVKNK (peptide, UniProt P18509 132-169, looked up, ends and bridges not checked) [PACAP-38]",–,–,–,–,38300 nM
RRLSYSRRRFE-Thia (also: linkage of decapeptide to Glu not explained) [Transp 01 (…-E-Thia)],–,–,–,–,50.8 nM

# Other lines, results leading:
Ki [1],Ki [2],Ki [3],Ki [4],Ki [5],Binder
26.7 µM,2800 nM,14 µM,3.7 µM,–,TFTSDY [hexapeptide TFTSDY]
–,–,–,–,35.1 nM,YAESTF-NH2 [YAESTF amide]
